Results as given in the supplement of paper PMC9233669.
Fewer inactive variants are shown than the library holds.

Legend:
[1] = tested on: biotinyl-Phe-oxazolone; experiment: self-aminoacylation, catalytic enhancement (BFO) (fold over background); higher = more active; k-Seq, kA / k0A0; sequences stand for … in GGGAAUGGAUCCACAUCUACGAAUUC…UUCACUGCAGACUUGACGAAGCUG
Method in brief: (§1)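 Each biotinyl-aminoacyl-oxazolone, at 2–1250 μM, was incubated with mutagenized RNA pools (0.43 μM) carrying a 21-nt variable region. The 50 μL reactions contained HEPES/NaCl/KCl/MgCl2/CaCl2 buffer with 5% acetonitrile at pH 6.9–7.0 and ran for 90 minutes at room temperature. After streptavidin capture, RNA was measured by qPCR in triplicate and by Illumina sequencing, and catalytic enhancement was calculated as median kA over the uncatalyzed rate from a pseudo-first-order fit of per-sequence fraction reacted.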

[2] = tested on: biotinyl-Ile-oxazolone; experiment: self-aminoacylation, catalytic enhancement (BIO) (fold over background); higher = more active; k-Seq, kA / k0A0; sequences stand for … in GGGAAUGGAUCCACAUCUACGAAUUC…UUCACUGCAGACUUGACGAAGCUG
Method in brief: as §1

[3] = tested on: biotinyl-Val-oxazolone; experiment: self-aminoacylation, catalytic enhancement (BVO) (fold over background); higher = more active; k-Seq, kA / k0A0; sequences stand for … in GGGAAUGGAUCCACAUCUACGAAUUC…UUCACUGCAGACUUGACGAAGCUG
Method in brief: as §1

[4] = tested on: biotinyl-Leu-oxazolone; experiment: self-aminoacylation, catalytic enhancement (BLO) (fold over background); higher = more active; k-Seq, kA / k0A0; sequences stand for … in GGGAAUGGAUCCACAUCUACGAAUUC…UUCACUGCAGACUUGACGAAGCUG
Method in brief: as §1

[5] = tested on: biotinyl-Trp-oxazolone; experiment: self-aminoacylation, catalytic enhancement (BWO) (fold over background); higher = more active; k-Seq, kA / k0A0; sequences stand for … in GGGAAUGGAUCCACAUCUACGAAUUC…UUCACUGCAGACUUGACGAAGCUG
Method in brief: as §1

[6] = tested on: biotinyl-Met-oxazolone; experiment: self-aminoacylation, catalytic enhancement (BMO) (fold over background); higher = more active; k-Seq, kA / k0A0; sequences stand for … in GGGAAUGGAUCCACAUCUACGAAUUC…UUCACUGCAGACUUGACGAAGCUG
Method in brief: as §1

Row | Sequence | self-aminoacylation [1] | self-aminoacylation [2] | self-aminoacylation [3] | self-aminoacylation [4] | self-aminoacylation [5] | self-aminoacylation [6]
1 | AAUACCCUGGUUAUCGAGUGA [Fam2.1 aminoacylation ribozyme variant] | 30.8 | 3.37 | 3.59 | 7.89 | 9.84 | 6.97
2 | AAUACCCUUGUCAUCGAGUGA [Fam2.1 aminoacylation ribozyme variant] | 5.23 | 2.42 | 2.43 | 4.72 | 5.93 | 4.58
3 | AAUAUCCUGGUCAUCGAGUGA [Fam2.1 aminoacylation ribozyme variant] | 26.2 | 4.6 | 4.34 | 8.92 | 10.1 | 8.66
4 | AAUAUUGCUAAUAGUCGCAAG [Fam3.1 aminoacylation ribozyme variant] | 2.4 | 1.86 | 1.76 | 1.7 | 1.95 | 1.68
5 | AAUCACCAAGGUCAUCGGGUG [Fam2.2 aminoacylation ribozyme variant] | 54.3 | 4.92 | 5.67 | 10.7 | 8.66 | 6.79
6 | AAUCACCUACGUCAUCGGGUG [Fam2.2 aminoacylation ribozyme variant] | 53 | 4.41 | 3.79 | 6.01 | 7.27 | 6.56
7 | AAUCACCUAGGUCAUCGAGUG [Fam2.2 aminoacylation ribozyme variant] | 7.56 | 3.52 | 2.86 | 4.65 | 3.26 | 3.92
8 | AAUCACCUAGGUCAUCGCGUG [Fam2.2 aminoacylation ribozyme variant] | 70.6 | 6.41 | 7.32 | 12.1 | 10.4 | 11.3
9 | AAUCACCUAGGUCAUCGGGCG [Fam2.2 aminoacylation ribozyme variant] | 7.85 | 3.35 | 2.77 | 4.1 | 3.94 | 4.05
10 | AAUCACCUAGGUCAUUGGGUG [Fam2.2 aminoacylation ribozyme variant] | 13.1 | 2.94 | 2.65 | 3.6 | 4.15 | 2.74
11 | AAUCACCUAGGUCCUCGGGUG [Fam2.2 aminoacylation ribozyme variant] | 19.7 | 3.74 | 3.29 | 5.07 | 5.34 | 3.73
12 | AAUCCCCUAGGUCAUCGGGUG [Fam2.2 aminoacylation ribozyme variant] | 104 | 7.49 | 8.17 | 16.3 | 11.8 | 13.5
13 | AAUUCCCUGGUCAUCGAGUGA [Fam2.1 aminoacylation ribozyme variant] | 41.5 | 5.6 | 6.09 | 10.8 | 13 | 10.1
14 | AAUUCUGCUAAUAGUCGCAAG [Fam3.1 aminoacylation ribozyme variant] | 12.7 | 1.88 | 1.56 | 1.61 | 4.46 | 1.81
15 | AAUUUUGAUAAUAGUCGCAAG [Fam3.1 aminoacylation ribozyme variant] | 2.09 | 1.7 | 1.39 | 1.64 | 1.37 | 1.66
16 | AAUUUUGCUAAUAGGCGCAAG [Fam3.1 aminoacylation ribozyme variant] | 1.5 | 1.57 | 1.28 | 1.12 | 1.71 | 1.43
17 | AAUUUUGCUAAUAGUAGCAAG [Fam3.1 aminoacylation ribozyme variant] | 1.11 | 1.41 | 1.37 | 1.75 | 0.996 | 1.31
18 | AAUUUUGCUAAUAGUCGCAAC [Fam3.1 aminoacylation ribozyme variant] | 2.23 | 1.64 | 1.8 | 1.44 | 1.95 | 1.41
19 | AAUUUUGCUAAUAGUCGCGAG [Fam3.1 aminoacylation ribozyme variant] | 8.52 | 2.28 | 1.51 | 1.7 | 2.02 | 1.99
20 | AAUUUUGCUAAUAGUCGUAAG [Fam3.1 aminoacylation ribozyme variant] | 10.9 | 1.42 | 1.44 | 1.31 | 4.02 | 1.11
21 | AAUUUUGCUAAUAGUCUCAAG [Fam3.1 aminoacylation ribozyme variant] | 2.56 | 1.38 | 1.26 | 1.19 | 1.23 | 1.21
22 | AAUUUUGCUAAUUGUCGCAAG [Fam3.1 aminoacylation ribozyme variant] | 2.61 | 2.45 | 1.73 | 2.13 | 2.21 | 1.92
23 | AAUUUUGUUAAUAGUCGCAAG [Fam3.1 aminoacylation ribozyme variant] | 2.48 | 2.04 | 1.72 | 1.93 | 2.56 | 2.05
24 | ACACACUUCAAGCAACCGGUC [Fam1B.1 aminoacylation ribozyme variant] | 1.43 | 1.18 | 1.54 | 1.17 | 1.13 | 1.51
25 | ACACACUUCAAGCAAUCGGAC [Fam1B.1 aminoacylation ribozyme variant] | 1.42 | 1.1 | 1.02 | 0.979 | 1.43 | 0.97
26 | ACACACUUCAAGCAAUCGGGC [Fam1B.1 aminoacylation ribozyme variant] | 2.02 | 2.48 | 2.73 | 2.34 | 3.29 | 2.81

Row | Sequence | self-aminoacylation [1] | self-aminoacylation [2] | self-aminoacylation [3] | self-aminoacylation [4] | self-aminoacylation [5] | self-aminoacylation [6]
27 | ACACACUUCAAGCAAUCGUUC [Fam1B.1 aminoacylation ribozyme variant] | 1.43 | 1.02 | 1.23 | 0.787 | 1.21 | 0.825
28 | ACACACUUCAAGCAAUCUGUC [Fam1B.1 aminoacylation ribozyme variant] | 1.39 | 0.759 | 1.02 | 0.58 | 0.683 | 0.567
29 | ACACACUUCAAGCAAUUGGUC [Fam1B.1 aminoacylation ribozyme variant] | 1.61 | 1.09 | 1.17 | 0.945 | 1.29 | 1.01
30 | ACACACUUCAAGCAUUCGGUC [Fam1B.1 aminoacylation ribozyme variant] | 1.5 | 1.81 | 1.87 | 1.8 | 2.13 | 1.68
31 | ACACCCUUCAAGCAAUCGGUC [Fam1B.1 aminoacylation ribozyme variant] | 2.12 | 1.01 | 1.02 | 0.984 | 1.59 | 0.897
32 | ACACUCUUCAAGCAAUCGGUC [Fam1B.1 aminoacylation ribozyme variant] | 4.37 | 0.997 | 1.08 | 1.11 | 2.4 | 0.9
33 | ACCACCCUGGUCAUCGAGUGA [Fam2.1 aminoacylation ribozyme variant] | 27.9 | 4.75 | 5.17 | 9.22 | 9.59 | 10.1
34 | ACGACCCUGGUCAUCGAGUGA [Fam2.1 aminoacylation ribozyme variant] | 9.21 | 3.57 | 3.77 | 6.52 | 7.11 | 6.93
35 | ACGUUUACUAAUAGUCGCAAG [Fam3.1 aminoacylation ribozyme variant] | 2.57 | 1.56 | 1.53 | 1.8 | 1.41 | 1.35
36 | ACGUUUGCGAAUAGUCGCAAG [Fam3.1 aminoacylation ribozyme variant] | 3.56 | 1.97 | 1.45 | 1.85 | 2.17 | 1.58
37 | ACGUUUGCUAACAGUCGCAAG [Fam3.1 aminoacylation ribozyme variant] | 4.28 | 1.5 | 1.29 | 1.97 | 1.94 | 1.53
38 | ACGUUUGCUAAUAGGCGCAAG [Fam3.1 aminoacylation ribozyme variant] | 5.88 | 1.94 | 1.61 | 1.67 | 0.911 | 1.35
39 | ACGUUUGCUAAUAGUCACAAG [Fam3.1 aminoacylation ribozyme variant] | 3.82 | 1.34 | 1.39 | 1.15 | 1.82 | 0.95
40 | ACGUUUGCUAAUAGUCGAAAG [Fam3.1 aminoacylation ribozyme variant] | 5.96 | 1.37 | 1.24 | 1.09 | 2.68 | 1.58
41 | ACGUUUGCUAAUAGUCUCAAG [Fam3.1 aminoacylation ribozyme variant] | 3.28 | 1.11 | 1.13 | 1.02 | 2.15 | 0.921
42 | ACGUUUGCUAAUAGUGGCAAG [Fam3.1 aminoacylation ribozyme variant] | 0.738 | 0.853 | 0.741 | 0.804 | 0.59 | 0.75
43 | ACGUUUGCUAAUAGUUGCAAG [Fam3.1 aminoacylation ribozyme variant] | 2.12 | 1.45 | 1.17 | 1.33 | 1.15 | 1.26
44 | ACGUUUGCUAUUAGUCGCAAG [Fam3.1 aminoacylation ribozyme variant] | 1.31 | 1.5 | 1.21 | 1.18 | 2.22 | 1.67
45 | ACUACCCUGCUCAUCGAGUGA [Fam2.1 aminoacylation ribozyme variant] | 2.39 | 1.37 | 1.85 | 2.44 | 1.93 | 1.45
46 | ACUACCCUGGACAUCGAGUGA [Fam2.1 aminoacylation ribozyme variant] | 20.6 | 2.55 | 2.92 | 6.83 | 7.37 | 7.03
47 | ACUACCCUGGGCAUCGAGUGA [Fam2.1 aminoacylation ribozyme variant] | 41.4 | 3.65 | 4.49 | 7.95 | 6.86 | 7.11
48 | ACUACCCUGGUCAACGAGUGA [Fam2.1 aminoacylation ribozyme variant] | 17 | 3.48 | 3.82 | 5.55 | 6.49 | 5.53
49 | ACUACCCUGGUCAUCAAGUGA [Fam2.1 aminoacylation ribozyme variant] | 5.04 | 1.67 | 1.67 | 2.37 | 2.76 | 3.19
50 | ACUACCCUGGUCAUCGAGCGA [Fam2.1 aminoacylation ribozyme variant] | 2.05 | 2.04 | 1.94 | 1.95 | 1.82 | 1.91
51 | ACUACCCUGGUCAUCGAGUAA [Fam2.1 aminoacylation ribozyme variant] | 20.1 | 3.33 | 3.99 | 8.99 | 8 | 9.42
